Assay results reported in patent US7838231 (REGENTS OF THE UNIVERSITY OF MICHIGAN, dated 2010).

Assays:
Experiment in all cases: direct yeast two-hybrid assay
[1] = molecular target: T1, RPGR (non-ORF15 containing isoform), human full length, yeast two-hybrid prey (human, UniProt Q92834-2 1-815)
T1 construct: also called non-ORF15 containing RPGR isoform
T1 sequence (looked up): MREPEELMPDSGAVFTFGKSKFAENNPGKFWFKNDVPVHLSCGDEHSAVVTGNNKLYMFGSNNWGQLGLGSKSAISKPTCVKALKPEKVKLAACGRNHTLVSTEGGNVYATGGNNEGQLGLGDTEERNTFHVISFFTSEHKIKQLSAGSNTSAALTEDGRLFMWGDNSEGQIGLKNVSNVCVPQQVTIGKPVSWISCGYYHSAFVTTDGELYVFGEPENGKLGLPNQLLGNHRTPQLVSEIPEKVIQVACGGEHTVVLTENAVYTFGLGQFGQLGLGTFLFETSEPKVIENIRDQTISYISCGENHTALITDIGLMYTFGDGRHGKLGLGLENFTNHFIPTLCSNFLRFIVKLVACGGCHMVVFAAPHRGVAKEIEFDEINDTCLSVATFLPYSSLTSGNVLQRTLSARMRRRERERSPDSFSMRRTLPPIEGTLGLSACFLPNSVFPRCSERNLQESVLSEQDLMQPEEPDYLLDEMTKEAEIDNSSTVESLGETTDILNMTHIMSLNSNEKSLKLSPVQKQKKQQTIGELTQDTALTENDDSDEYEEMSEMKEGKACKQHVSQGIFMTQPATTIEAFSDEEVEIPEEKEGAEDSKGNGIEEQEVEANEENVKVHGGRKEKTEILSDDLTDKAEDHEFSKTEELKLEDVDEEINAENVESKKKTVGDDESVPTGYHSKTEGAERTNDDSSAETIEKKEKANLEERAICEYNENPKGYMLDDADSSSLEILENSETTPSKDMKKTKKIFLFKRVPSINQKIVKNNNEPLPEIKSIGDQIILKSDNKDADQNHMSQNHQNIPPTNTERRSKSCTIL

[2] = molecular target: T2, inversin (NPHP2), human full length, yeast two-hybrid prey (human, UniProt Q9Y283 1-1065)
T2 construct: also called INVS
T2 sequence: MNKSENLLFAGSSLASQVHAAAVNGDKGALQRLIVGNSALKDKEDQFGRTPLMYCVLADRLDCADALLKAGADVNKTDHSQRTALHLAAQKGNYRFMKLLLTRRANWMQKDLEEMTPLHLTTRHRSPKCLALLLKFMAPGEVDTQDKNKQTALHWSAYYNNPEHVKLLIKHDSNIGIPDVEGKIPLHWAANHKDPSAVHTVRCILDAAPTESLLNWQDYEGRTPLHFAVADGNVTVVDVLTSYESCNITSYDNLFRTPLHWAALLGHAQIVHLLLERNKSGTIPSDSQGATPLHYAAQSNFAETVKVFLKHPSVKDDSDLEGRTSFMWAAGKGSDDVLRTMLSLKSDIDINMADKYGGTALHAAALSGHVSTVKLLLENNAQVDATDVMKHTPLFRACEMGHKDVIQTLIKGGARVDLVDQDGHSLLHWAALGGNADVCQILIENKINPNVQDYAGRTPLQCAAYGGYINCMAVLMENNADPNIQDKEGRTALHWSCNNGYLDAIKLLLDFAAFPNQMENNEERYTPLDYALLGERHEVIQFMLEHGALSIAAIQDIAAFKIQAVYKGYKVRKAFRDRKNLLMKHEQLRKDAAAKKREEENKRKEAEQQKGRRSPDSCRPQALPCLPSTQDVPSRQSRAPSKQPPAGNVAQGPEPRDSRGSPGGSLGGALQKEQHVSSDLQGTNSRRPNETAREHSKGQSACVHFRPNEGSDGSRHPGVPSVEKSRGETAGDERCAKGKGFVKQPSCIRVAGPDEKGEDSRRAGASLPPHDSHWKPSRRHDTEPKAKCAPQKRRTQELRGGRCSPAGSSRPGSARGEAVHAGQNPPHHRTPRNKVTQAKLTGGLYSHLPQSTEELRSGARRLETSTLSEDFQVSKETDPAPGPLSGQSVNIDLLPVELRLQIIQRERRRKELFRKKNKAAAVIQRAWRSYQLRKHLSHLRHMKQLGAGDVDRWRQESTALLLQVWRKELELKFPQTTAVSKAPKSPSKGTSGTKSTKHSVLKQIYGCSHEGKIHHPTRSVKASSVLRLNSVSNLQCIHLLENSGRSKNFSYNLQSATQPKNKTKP

[3] = molecular target: T3, BBS2, human full length, yeast two-hybrid prey (human, UniProt Q9BXC9 1-721)
T3 sequence (looked up): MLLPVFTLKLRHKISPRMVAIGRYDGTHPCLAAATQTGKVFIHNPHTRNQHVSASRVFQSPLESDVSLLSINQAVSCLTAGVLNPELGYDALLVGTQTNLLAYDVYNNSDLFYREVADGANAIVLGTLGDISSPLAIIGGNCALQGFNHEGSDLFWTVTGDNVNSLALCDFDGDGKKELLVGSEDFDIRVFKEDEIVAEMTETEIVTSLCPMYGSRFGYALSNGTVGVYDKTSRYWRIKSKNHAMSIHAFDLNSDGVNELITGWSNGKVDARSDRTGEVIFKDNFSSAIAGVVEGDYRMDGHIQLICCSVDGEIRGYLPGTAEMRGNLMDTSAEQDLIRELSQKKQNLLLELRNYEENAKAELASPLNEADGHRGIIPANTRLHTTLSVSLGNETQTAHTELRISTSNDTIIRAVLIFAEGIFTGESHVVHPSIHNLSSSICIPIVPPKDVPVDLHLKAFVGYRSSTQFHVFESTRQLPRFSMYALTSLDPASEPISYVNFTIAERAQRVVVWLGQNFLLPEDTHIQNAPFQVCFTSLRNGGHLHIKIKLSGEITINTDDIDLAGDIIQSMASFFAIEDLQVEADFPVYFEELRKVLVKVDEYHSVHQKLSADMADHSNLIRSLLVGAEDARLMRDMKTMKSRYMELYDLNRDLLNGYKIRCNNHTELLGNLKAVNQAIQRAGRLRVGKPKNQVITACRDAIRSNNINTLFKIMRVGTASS

Measured: binding result

B1: full-length human nephrocystin-5 (NPHP5), yeast two-hybrid fusion (other, not shown: small tags and cut ends)
chain: MKPTGTDPRILSIAAEVAKSPEQNVPVILLKLKEIINITPLGSSELKKIKQDIYCYDLIQYCLLVLSQDYSRIQGGWTTISQLTQILSHCCVGLEPGEDAEEFYNELLPSAAENFLVLGRQLQTCFINAAKAEEKDELLHFFQIVTDSLFWLLGGHVELIQNVLQSDHFLHLLQADNVQIGSAVMMMLQNILQINSGDLLRIGRKALYSILDEVIFKLFSTPSPVIRSTATKLLLLMAESHQEILILLRQSTCYKGLRRLLSKQETGTEFSQELRQLVGLLSPMVYQEVEEQKLHQAACLIQAYWKGFQTRKRLKKLPSAVIALQRSFRSKRSKMLLEINRQKEEEDLKLQLQLQRQRAMRLSRELQLSMLEIVHPGQVEKHYREMEEKSALNIQKHWRGYRERKNFHQQRQSLIEYKAAVTLQRAALKFLAKCRKKKKLFAPWRGLQELTDARRVELKKRVDDYVRRHLGSPMSDVVSRELHAQAQERLQHYFMGRALEERAQQHREALIAQISTNVEQLMKAPSLKEAEGKEPELFLSRSRPVAAKAKQAHLTTLKHIQAPWWKKLGEESGDEIDVPKDELSIELENLFIGGTKPP
notes: Full-length NPHP5 cDNA (598 amino acid residues) fused to a GAL4 domain; also called KIAA0036
no binding: all assays above
